Test results reported in US20040023862A1, “Uses of bombesin receptor 3” (SmithKline Beedham p. l. c., priority 2000, published 2004).
Numbering of substitutions follows the chain as printed. Values belong to the molecule of their own block, whether it stands above or below them. Non-standard residues stand in square brackets, D forms with d. Residues, ends and D or L forms follow the SMILES beside them. No end group written: not given here. Nle = CCCC[C@H](N)C(=O)O; βAla = NCCC(=O)O

What was measured:
BRS3 = target: T1, BRS3 (Homo sapiens, UniProt P32247); details: background statement, in words; cited from earlier work
T1 sequence (P32247 1-399): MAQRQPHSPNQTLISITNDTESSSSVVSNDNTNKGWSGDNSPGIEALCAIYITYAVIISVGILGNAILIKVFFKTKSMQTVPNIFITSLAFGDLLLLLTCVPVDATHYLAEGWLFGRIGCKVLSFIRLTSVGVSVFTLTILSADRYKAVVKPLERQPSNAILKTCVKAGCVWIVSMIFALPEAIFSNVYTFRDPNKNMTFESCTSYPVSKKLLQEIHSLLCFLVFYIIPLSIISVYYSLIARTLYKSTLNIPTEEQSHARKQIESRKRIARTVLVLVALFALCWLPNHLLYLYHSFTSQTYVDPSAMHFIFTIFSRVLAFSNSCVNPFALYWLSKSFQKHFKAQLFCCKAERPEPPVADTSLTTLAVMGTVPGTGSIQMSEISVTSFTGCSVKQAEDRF

BB1 receptor = BB1 receptor (Homo sapiens, UniProt P28336); details: from Smart (1998); cited from earlier work
BB2 receptor = BB2 receptor (Homo sapiens, UniProt P30550); details: from Smart (1998); cited from earlier work
[1] = target: T2, endogenous human BRS-3 in NCI-N417 cells (Homo sapiens, UniProt P32247); experiment: Agonist pharmacology, FLIPR intracellular calcium (Fluo-3AM) in NCI-N417 cells; assay type: cell-based; details: for Efficacy: calcium mobilisation, FLIPR, NCI-N417 cells, efficacy in words
T2 construct: Agonist Pharmacology at the Endogenous Human BRS-3 in NCI-N417 Cells; endogenous in cells; host or cells: NCI-N417 cells
T2 sequence (P32247 1-399): T1 sequence (P32247 1-399)
Protocol: Agonist Pharmacology at the Endogenous Human BRS-3 in NCI-N417 Cells
NCI-N417 cells were seeded into Costar 96 well black walled plates (30,000 cells per well), cultured overnight in RPMI 1640 medium containing 10% foetal calf serum and 1% L-glutamine, and then loaded with the cytoplasmic calcium indicator Fluo-3AM (4 μM) in the presence of 2.5 mM probenecid at 37° C. for 60 min. The cells were then washed 4× with, and finally resuspended in, Tyrode's medium containing 2.5 mM probenecid. Fluorescence was then monitored using a FLIPR (λEX=488 nm, λEM=540 nm) before and after the addition of various ligands (10 pM-10 μM), as described previously (Smart et al (1999). Br. J. Pharmacol. 128:1-4).

[2] = test system: organotypic hippocampal slice cultures; experiment: Oxygen/glucose deprivation model in organotypic hippocampal slice cultures; assay type: cell-based
hippocampal neurones = experiment: Neurotoxicity assay (MTT cell survival) in primary hippocampal cell culture; assay type: cell-based, rat; details: sub-maximal neurotoxicity by Mg-free Locke's solution with glycine and histamine, MTT 24 h after insult
Protocol: Hippocampi were isolated from embryonic Sprague Dawley rats (gestational age 17.5 days; Charles River), incubated with 0.08% (w/v) trypsin, and dissociated in Neurobasal medium containing 10% heat-inactivated fetal calf serum (Skaper et al.(1990) Methods in Neurosciences, Vol. 2 (Conn P. M., ed), pp. 17-33 Academic Press, San Diego). Cells were pelleted by centrifugation (200 g, 5 min) and resuspended in Neurobasal medium containing B27 supplements (with antioxidants), 25 μM glutamate, 1 mM sodium pyruvate, 2 mM L-glutamine, 50 U/ml penicillin, and 50 μg/ml streptomycin. The cell suspension was plated onto poly-D-lysine (10 μg/ml) coated 48-well culture plates (Nunc), at a density of 4.5×10^4 cells per cm^2. Cultures were maintained at 37° C. in a humidified atmosphere of 5% CO2-95% air. […]
Cultures were washed once with Locke's solution (pH 7.0-7.4) (Skaper et al. (1990) supra) with or without 1 mM magnesium chloride (MgCl2). […] Cell survival was quantified 24 h after the insult by a colorimetric reaction with 3-(4,5-dimethylthiazol-2-yl)-2,5-diphenyltetrazolium bromide (MTT) (Mosmann (1983) J. Immunol. Methods 65:55-63; Manthorpe et al. (1986) Dev. Brain Res. 25:191-198; Skaper et al., (1990) supra). Absolute MTT values obtained were normalized and expressed as a percentage of sham-treated sister cultures (defined as 100%).

cerebellar granule cells = experiment: Glutamate-induced excitotoxicity in cerebellar granule cells; assay type: cell-based
Description: However, in the cerebellar granule cells [D-Phe^6, βAla^11, Phe^13, Nle^14]Bombesin(6-14) had no effect on glutamate-induced excitotoxicity.

[3] = target: T3, human bombesin receptor 3 (BRS3), endogenous in NCI-N417 cells (human) (UniProt P32247); experiment: cell-based or functional assay
T3 sequence: T1 sequence (P32247 1-399) with T139A

Chain of BB2 receptor (P30550 whole entry): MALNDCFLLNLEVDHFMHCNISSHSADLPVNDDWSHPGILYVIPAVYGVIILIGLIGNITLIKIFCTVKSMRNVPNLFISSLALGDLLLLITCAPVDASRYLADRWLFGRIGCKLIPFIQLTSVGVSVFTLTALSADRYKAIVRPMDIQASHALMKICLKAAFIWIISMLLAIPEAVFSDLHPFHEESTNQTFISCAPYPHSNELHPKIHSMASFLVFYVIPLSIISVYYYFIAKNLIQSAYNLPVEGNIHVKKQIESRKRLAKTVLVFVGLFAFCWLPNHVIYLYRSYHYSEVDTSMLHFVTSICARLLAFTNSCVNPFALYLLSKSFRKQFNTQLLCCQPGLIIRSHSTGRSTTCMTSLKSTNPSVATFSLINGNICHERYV
Chain of BB1 receptor (P28336 whole entry): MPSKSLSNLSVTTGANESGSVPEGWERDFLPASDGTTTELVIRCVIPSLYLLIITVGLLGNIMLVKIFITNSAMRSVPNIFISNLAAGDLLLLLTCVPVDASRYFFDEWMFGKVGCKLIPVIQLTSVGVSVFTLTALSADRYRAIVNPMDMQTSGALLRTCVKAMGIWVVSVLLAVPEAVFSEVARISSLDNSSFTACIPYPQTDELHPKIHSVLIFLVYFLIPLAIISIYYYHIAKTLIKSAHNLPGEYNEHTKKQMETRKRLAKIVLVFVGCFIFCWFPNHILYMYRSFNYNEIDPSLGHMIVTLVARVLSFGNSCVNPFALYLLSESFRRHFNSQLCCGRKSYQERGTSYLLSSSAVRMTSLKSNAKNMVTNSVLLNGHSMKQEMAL

Molecule: CSCC[C@H](NC(=O)[C@H](CC(C)C)NC(=O)[C@H](Cc1c[nH]cn1)NC(=O)CNC(=O)[C@@H](NC(=O)[C@H](C)NC(=O)[C@H](Cc1c[nH]c2ccccc12)NC(=O)[C@H](Cc1c[nH]cn1)NC(=O)[C@H](CC(N)=O)NC(=O)CNC(=O)[C@H](CCCNC(=N)N)NC(=O)[C@@H]1CCCN1C(=O)[C@H](Cc1ccc(O)cc1)NC(=O)[C@H](CCSC)NC(=O)[C@H](CCCCN)NC(=O)[C@@H](NC(=O)[C@H](CC(C)C)NC(=O)[C@@H](NC(=O)[C@@H](NC(=O)CNC(=O)CNC(=O)CNC(=O)[C@H](C)NC(=O)[C@@H]1CCCN1C(=O)[C@H](CC(C)C)NC(=O)[C@@H]1CCCN1C(=O)[C@@H](N)C(C)C)[C@@H](C)O)C(C)C)[C@@H](C)O)C(C)C)C(N)=O [GRP, gastrin-releasing peptide]
affinity at BRS3 (BRS3): very low (high μM) affinity

Molecule: CC(C)c1cccc(C(C)C)c1NC(=O)N[C@@](C)(Cc1c[nH]c2ccccc12)C(=O)NCC1(c2ccccn2)CCCCC1 [PD 165929]
affinity at the BB1 receptor (BB1 receptor): 7.6 nM | activity at the BB2 receptor (BB2 receptor): inactive

Molecule: CCCC[C@H](NC(=O)[C@H](Cc1ccccc1)NC(=O)[C@H](Cc1c[nH]cn1)NC(=O)CCNC(=O)[C@@H](NC(=O)[C@H](C)NC(=O)[C@H](Cc1c[nH]c2ccccc12)NC(=O)[C@H](CCC(N)=O)NC(=O)[C@H](N)Cc1ccccc1)C(C)C)C(N)=O [[D-Phe^6, βAla^11, Phe^13, Nle^14]Bombesin(6-14)] (H-[dF]QWAV[βAla]HF[Nle]-NH2; N-terminus and C-terminus assumed)
EC50 [1]: 13.2 nM | Efficacy [1]: full | neuroprotection [2]: neuroprotective | pEC50 for inhibition of damage (hippocampal neurones): 7.3±0.1 | effect on glutamate-induced excitotoxicity (cerebellar granule cells): no effect | affinity at BRS3 (BRS3): low nM affinity

Molecule: Bombesin (peptide)
Efficacy; intracellular calcium (FLIPR) in NCI-N417 cells [3]: 23% | pEG50 [sic, pEC50]; intracellular calcium (Fluo-3AM fluorescence, FLIPR) in NCI-N417 cells [3]: < 5 -log10(M)

Molecule: Ranantensin (peptide)
pEG50 [sic, pEC50]; intracellular calcium (Fluo-3AM fluorescence, FLIPR) in NCI-N417 cells [3]: 5.59 -log10(M)

Molecule: [D-Phe^1, Nle^9]litorin (peptide)
pEG50 [sic, pEC50]; intracellular calcium (Fluo-3AM fluorescence, FLIPR) in NCI-N417 cells [3]: 5.96 -log10(M)

Molecule: [D-Phe^6, βAla^11, Phe^13, Nle^14]Bombesin(6-14) (peptide)
pEG50 [sic, pEC50]; intracellular calcium (Fluo-3AM fluorescence, FLIPR) in NCI-N417 cells [3]: 7.88 -log10(M)

Molecule: neuromedin B [NMB]
Efficacy [1]: full | affinity at BRS3 (BRS3): very low (high μM) affinity

Molecule: neuromedin C (NMC) (peptide)
Efficacy; intracellular calcium (FLIPR) in NCI-N417 cells [3]: 20%

Results, then the molecule that gave them:

pEG50 [sic, pEC50]; intracellular calcium (Fluo-3AM fluorescence, FLIPR) in NCI-N417 cells [3]: 5.54 -log10(M)
Molecule: PG-L (peptide)

pEG50 [sic, pEC50]; intracellular calcium (Fluo-3AM fluorescence, FLIPR) in NCI-N417 cells [3]: 6.83 -log10(M)
Molecule: [D-Phe^6, Phe^13]BN(6-13) propylamide (peptide)

pEG50 [sic, pEC50]; intracellular calcium (Fluo-3AM fluorescence, FLIPR) in NCI-N417 cells [3]: 5.86 -log10(M)
Molecule: [D-Phe^6]BN(6-13) propylamide (peptide)

pEG50 [sic, pEC50]; intracellular calcium (Fluo-3AM fluorescence, FLIPR) in NCI-N417 cells [3]: 8.02 -log10(M)
Molecule: [D-Tyr^6, βAla^11, Phe^13, Nle^14]Bombesin(6-14) (peptide)

pEG50 [sic, pEC50]; intracellular calcium (Fluo-3AM fluorescence, FLIPR) in NCI-N417 cells [3]: 5.73 -log10(M)
B1: AcNMB(3-10) (peptide, UniProt P08949 49-56, looked up, species assumed)
chain: Ac-LWATGHFM
modifications: ends and bridges not checked

pEG50 [sic, pEC50]; intracellular calcium (Fluo-3AM fluorescence, FLIPR) in NCI-N417 cells [3]: 5.65 -log10(M)
B2: neuromedin B (NMB) (peptide, UniProt P08949 47-56, looked up, species assumed)
Neuromedin-B: GNLWATGHFM
modifications: ends and bridges not checked

Efficacy; intracellular calcium (FLIPR) in NCI-N417 cells [3]: 23% | pEG50 [sic, pEC50]; intracellular calcium (Fluo-3AM fluorescence, FLIPR) in NCI-N417 cells [3]: < 5 -log10(M)
B3: gastrin-releasing peptide (GRP) (peptide, UniProt P07492 24-50, looked up, species assumed)
Gastrin-releasing peptide: VPLPAGGGTVLTKMYPRGNHWAVGHLM
modifications: ends and bridges not checked
